In US20260266848A1, “COMPOSITIONS AND METHODS FOR DIAGNOSING AND TREATING DYSTONIA” (Duke University, priority 2023, published 2026):

B1: Eif4b (protein, UniProt Q8BGD9 1-611, looked up)
Eukaryotic translation …: MAASAKKKNKKGKTISLTDFLAEDGGTGGGSTYVPKPVSWADETDDLEGDVSTTWHSNDDDVYRAPPIDRSILPTAPRAAREPNIDRSRLPKSPPYTAFLGNLPYDVTEDSIKDFFRGLNISAVRLPREPSNPDRLKGFGYAEFEDLDSLLSALSLNEESLGNRRIRVDVADQAQDKDRDDRSFGRDRNRDSDKTDTDWRARPTTDSFDDYPPRRGDDSFGDKYRDRYDSDRYRDGYRDGYRDGPRRDMDRYGGRDRYDDRGSRDYDRGYDSRIGSGRRAFGSGYRRDDDYRGGGDRYEDRYDRRDDRSWSSRDDYSRDDYRRDDRGPPQRPRLNLKPRSAPKEDDASASTSQSSRAASIFGGAKPVDTAAREREVEERLQKEQEKLQRQLDEPKLDRRPRERHPSWRSEETQERERSRTGSESSQTGASATSGRNTRRRESEKSLENETLNKEEDCHSPTSKPPKPDQPLKVMPAPPPKENAWVKRSSNPPARSQSSDTEQPSPTSGGGKVAAVQPPEEGPSRKDGNKVDVVGATQGQAGSCSRGPGDGGSRDHWKDLDRKDGKKDQDSRSAPEPKKPEENPASKFSSASKYAALSVDGEDEDEGDDCTE
B2: Fgfr1 (protein, UniProt P16092 22-822, looked up)
Fibroblast growth factor …: RPAPTLPEQAQPWGVPVEVESLLVHPGDLLQLRCRLRDDVQSINWLRDGVQLVESNRTRITGEEVEVRDSIPADSGLYACVTSSPSGSDTTYFSVNVSDALPSSEDDDDDDDSSSEEKETDNTKPNRRPVAPYWTSPEKMEKKLHAVPAAKTVKFKCPSSGTPNPTLRWLKNGKEFKPDHRIGGYKVRYATWSIIMDSVVPSDKGNYTCIVENEYGSINHTYQLDVVERSPHRPILQAGLPANKTVALGSNVEFMCKVYSDPQPHIQWLKHIEVNGSKIGPDNLPYVQILKTAGVNTTDKEMEVLHLRNVSFEDAGEYTCLAGNSIGLSHHSAWLTVLEALEERPAVMTSPLYLEIIIYCTGAFLISCMLGSVIIYKMKSGTKKSDFHSQMAVHKLAKSIPLRRQVTVSADSSASMNSGVLLVRPSRLSSSGTPMLAGVSEYELPEDPRWELPRDRLVLGKPLGEGCFGQVVLAEAIGLDKDKPNRVTKVAVKMLKSDATEKDLSDLISEMEMMKMIGKHKNIINLLGACTQDGPLYVIVEYASKGNLREYLQARRPPGLEYCYNPSHNPEEQLSSKDLVSCAYQVARGMEYLASKKCIHRDLAARNVLVTEDNVMKIADFGLARDIHHIDYYKKTTNGRLPVKWMAPEALFDRIYTHQSDVWSFGVLLWEIFTLGGSPYPGVPVEELFKLLKEGHRMDKPSNCTNELYMMMRDCWHAVPSQRPTFKQLVEDLDRIVALTSNQEYLDLSIPLDQYSPSFPDTRSSTCSSGEDSVFSHEPLPEEPCLPRHPTQLANSGLKRR
B3: Stxbp2 (protein, UniProt Q64324 1-593, looked up)
Syntaxin-binding protein 2: MAPLGLKAVVGEKILSGVIRSVKKDGEWKVLIMDHPSMRILSSCCKMSDILAEGITIVEDINKRREPIPSLEAIYLLSPTEKSVQALIADFQGTPTFTYKAAHIFFTDTCPEPLFSELGRSRLAKAVKTLKEIHLAFLPYEAQVFSLDAPHSTYNLYCPFRAGERGRQLDALAQQIATLCATLQEYPSIRYRKGPEDTAQLAHAVLAKLNAFKADTPSLGEGPEKTRSQLLIMDRAADPVSPLLHELTFQAMAYDLLDIEQDTYRYETTGLSESREKAVLLDEDDDLWVELRHMHIADVSKKVTELLKTFCESKRLTTDKANIKDLSHILKKMPQYQKELNKYSTHLHLADDCMKHFKGSVEKLCSVEQDLAMGSDAEGEKIKDAMKLIVPVLLDASVPPYDKIRVLLLYILLRNGVSEENLAKLIQHANVQSYSSLIRNLEQLGGTVTNSAGSGTSSRLERRERMEPTYQLSRWSPVIKDVMEDVVEDRLDRKLWPFVSDPAPVPSSQAAVSARFGHWHKNKAGVEARAGPRLIVYIVGGVAMSEMRAAYEVTRATEGKWEVLIGSSHILTPTRFLDDLKTLDQKLEGVALP
B4: Col6a1 (protein, UniProt Q04857 20-1025, looked up)
Collagen alpha-1(VI) chain: QDIQGSKAIAFQDCPVDLFFVLDTSESVALRLKPYGALVDKVKSFTKRFIDNLRDRYYRCDRNLVWNAGALHYSDEVEIIRGLTRMPSGRDELKASVDAVKYFGKGTYTDCAIKKGLEELLIGGSHLKENKYLIVVTDGHPLEGYKEPCGGLEDAVNEAKHLGIKVFSVAITPDHLEPRLSIIATDHTYRRNFTAADWGHSRDAEEVISQTIDTIVDMIKNNVEQVCCSFECQAARGPPGPRGDPGYEGERGKPGLPGEKGEAGDPGRPGDLGPVGYQGMKGEKGSRGEKGSRGPKGYKGEKGKRGIDGVDGMKGETGYPGLPGCKGSPGFDGIQGPPGPKGDAGAFGMKGEKGEAGADGEAGRPGNSGSPGDEGDPGEPGPPGEKGEAGDEGNAGPDGAPGERGGPGERGPRGTPGVRGPRGDPGEAGPQGDQGREGPVGIPGDSGEAGPIGPKGYRGDEGPPGPEGLRGAPGPVGPPGDPGLMGERGEDGPPGNGTEGFPGFPGYPGNRGPPGLNGTKGYPGLKGDEGEVGDPGEDNNDISPRGVKGAKGYRGPEGPQGPPGHVGPPGPDECEILDIIMKMCSCCECTCGPIDILFVLDSSESIGLQNFEIAKDFIIKVIDRLSKDELVKFEPGQSHAGVVQYSHNQMQEHVDMRSPNVRNAQDFKEAVKKLQWMAGGTFTGEALQYTRDRLLPPTQNNRIALVITDGRSDTQRDTTPLSVLCGADIQVVSVGIKDVFGFVAGSDQLNVISCQGLSQGRPGISLVKENYAELLDDGFLKNITAQICIDKKCPDYTCPITFSSPADITILLDSSASVGSHNFETTKVFAKRLAERFLSAGRADPSQDVRVAVVQYSGQGQQQPGRAALQFLQNYTVLASSVDSMDFINDATDVNDALSYVTRFYREASSGATKKRVLLFSDGNSQGATAEAIEKAVQEAQRAGIEIFVVVVGPQVNEPHIRVLVTGKTAEYDVAFGERHLFRVPNYQALLRGVLYQTVSRKVALG
B5: Eef1e1 (protein, UniProt Q9D1M4 2-174, looked up)
Eukaryotic translation …: AAAAELRLLEKSLGLKPGNKYSAQGERQIPVLQTNNGPSLMGLSTIATHLVKQASKEHLLGSTAEEKAMVQQWLEFRVTRVDGHSSKEDTQTLLKDLNSYLEDKVYLAGHNITLADILLYYGLHRFIVDLTVQEKEKYLNVSRWFCHIQHYPDIRQHLSSIVFIKNRLYANSH
B6: Psmd4 (protein, UniProt O35226 1-376, looked up)
26S proteasome non-ATPase …: MVLESTMVCVDNSEYMRNGDFLPTRLQAQQDAVNIVCHSKTRSNPENNVGLITLANDCEVLTTLTPDTGRILSKLHTVQPKGKITFCTGIRVAHLALKHRQGKNHKMRIIAFVGSPVEDNEKDLVKLAKRLKKEKVNVDIINFGEEEVNTEKLTAFVNTLNGKDGTGSHLVTVPPGPSLADALISSPILAGEGGAMLGLGASDFEFGVDPSADPELALALRVSMEEQRQRQEEEARRAAAASAAEAGIATPGTEDSDDALLKMTINQQEFGRPGLPDLSSMTEEEQIAYAMQMSLQGTEFSQESADMDASSAMDTSDPVKEEDDYDVMQDPEFLQSVLENLPGVDPNNAAIRSVMGALASQATKDGKNDKKEEEKK
B7: Ddx3x (protein, UniProt Q62167 2-662, looked up)
ATP-dependent RNA helicase …: SHVAVENALGLDQQFAGLDLNSSDNQSGGSTASKGRYIPPHLRNREATKGFYDKDSSGWSSSKDKDAYSSFGSRGDSRGKSSFFGDRGSGSRGRFDDRGRGDYDGIGGRGDRSGFGKFERGGNSRWCDKSDEDDWSKPLPPSERLEQELFSGGNTGINFEKYDDIPVEATGNNCPPHIESFSDVEMGEIIMGNIELTRYTRPTPVQKHAIPIIKEKRDLMACAQTGSGKTAAFLLPILSQIYADGPGEALRAMKENGRYGRRKQYPISLVLAPTRELAVQIYEEARKFSYRSRVRPCVVYGGAEIGQQIRDLERGCHLLVATPGRLVDMMERGKIGLDFCKYLVLDEADRMLDMGFEPQIRRIVEQDTMPPKGVRHTMMFSATFPKEIQMLARDFLDEYIFLAVGRVGSTSENITQKVVWVEEIDKRSFLLDLLNATGKDSLTLVFVETKKGADSLEDFLYHEGYACTSIHGDRSQRDREEALHQFRSGKSPILVATAVAARGLDISNVKHVINFDLPSDIEEYVHRIGRTGRVGNLGLATSFFNERNINITKDLLDLLVEAKQEVPSWLENMAFEHHYKGSSRGRSKSSRFSGGFGARDYRQSSGASSSSFSSSRASSSRSGGGGHGGSRGFGGGGYGGFYNSDGYGGNYNSQGVDWWGN

tested on: DYT-TOR1A MEF EVs; assay: Quantitative LC-MS/MS proteomics of EVs from drug-treated DYT-TOR1A MEF cultures (ritonavir, salubrinal); format: cell-based, mouse; set-up: key to RTV Corrective Direction / RTV Corrective Direction, Grwd1 / RTV Corrective Direction, Srrm2 / RTV Corrective Direction, Rbm17 / RTV Corrective Direction, Dcaf8 / RTV Corrective Direction, Edil3 / RTV Corrective Direction, Timp3 / RTV Corrective Direction, Heatr3 / RTV Corrective Direction, Brd4 / RTV Corrective Direction, P3h4 / RTV Corrective Direction, Pacsin3 / RTV Corrective Direction, Naa50 / RTV Corrective Direction, Lpar6 / RTV Corrective Direction, Ndrg1 / RTV Corrective Direction, Kntc1 / RTV Corrective Direction, Cdk11b / RTV Corrective Direction, Sumo1 / RTV Corrective Direction, Lsm4 / RTV Corrective Direction, Hmga2 / RTV Corrective Direction, Cstf1 / RTV Corrective Direction, Tes / RTV Corrective Direction, Sbno1 / RTV Corrective Direction, Unc119b / RTV Corrective Direction, Cfdp1 / RTV Corrective Direction, Sec61b: YES = protein abundance effect opposite to DYT/WT; conditions: EV protein abundance, DYT + RTV (ritonavir) vs DYT, direction compared with DYT/WT

Row | Molecule | RTV Corrective Direction
1 | B1 | YES
2 | B2 | YES
3 | B3 | YES
4 | B4 | YES
5 | B5 | YES
6 | B6 | YES
7 | B7 | YES

same assay, conditions: EV protein abundance, ritonavir (RTV)-treated DYT vs DYT

Row | Molecule | DYT + RTV/DYT Cohen's d
8 | B1 | −1.72
9 | B2 | −2.81
10 | B3 | 1.82
11 | B4 | −1.96
12 | B5 | 16.90
13 | B6 | −0.60
14 | B7 | 2.24

tested on: WT MEF EVs; assay: Quantitative LC-MS/MS proteomics of EVs from ISRIB-treated WT MEF cultures; format: cell-based, mouse; set-up: key to ISRIB and DYT Parallel Direction / ISRIB and DYT Parallel Direction, Ctdsp1 / ISRIB and DYT Parallel Direction, Pcdh19 / ISRIB and DYT Parallel Direction, Tspan7 / ISRIB and DYT Parallel Direction, Myo1e / ISRIB and DYT Parallel Direction, Plpp3 / ISRIB and DYT Parallel Direction, Sh3bp4 / ISRIB and DYT Parallel Direction, Dnajc7 / ISRIB and DYT Parallel Direction, Drg1 / ISRIB and DYT Parallel Direction, Maea: YES = protein abundance effect similar to DYT/WT; conditions: EV protein abundance, ISRIB-treated WT vs WT

Row | Molecule | WT + ISRIB/WT Cohen's d
15 | B1 | 3.88
16 | B2 | 5.66
17 | B3 | −0.96
18 | B4 | 0.14
19 | B5 | −3.65
20 | B6 | 0.71
21 | B7 | −1.08

same assay, conditions: EV protein abundance, WT + ISRIB vs WT, direction compared with DYT/WT

Row | Molecule | ISRIB and DYT Parallel Direction
22 | B1 | YES
23 | B2 | YES
24 | B3 | YES
25 | B4 | YES
26 | B5 | YES
27 | B6 | YES
28 | B7 | YES
